From article PMC11246235

Molecular target: T1, CST (Ctc1/Stn1/Ten1), His6-MBP tag of Ctc1 cleaved off (human), Q2NKJ3
T1 chain 1: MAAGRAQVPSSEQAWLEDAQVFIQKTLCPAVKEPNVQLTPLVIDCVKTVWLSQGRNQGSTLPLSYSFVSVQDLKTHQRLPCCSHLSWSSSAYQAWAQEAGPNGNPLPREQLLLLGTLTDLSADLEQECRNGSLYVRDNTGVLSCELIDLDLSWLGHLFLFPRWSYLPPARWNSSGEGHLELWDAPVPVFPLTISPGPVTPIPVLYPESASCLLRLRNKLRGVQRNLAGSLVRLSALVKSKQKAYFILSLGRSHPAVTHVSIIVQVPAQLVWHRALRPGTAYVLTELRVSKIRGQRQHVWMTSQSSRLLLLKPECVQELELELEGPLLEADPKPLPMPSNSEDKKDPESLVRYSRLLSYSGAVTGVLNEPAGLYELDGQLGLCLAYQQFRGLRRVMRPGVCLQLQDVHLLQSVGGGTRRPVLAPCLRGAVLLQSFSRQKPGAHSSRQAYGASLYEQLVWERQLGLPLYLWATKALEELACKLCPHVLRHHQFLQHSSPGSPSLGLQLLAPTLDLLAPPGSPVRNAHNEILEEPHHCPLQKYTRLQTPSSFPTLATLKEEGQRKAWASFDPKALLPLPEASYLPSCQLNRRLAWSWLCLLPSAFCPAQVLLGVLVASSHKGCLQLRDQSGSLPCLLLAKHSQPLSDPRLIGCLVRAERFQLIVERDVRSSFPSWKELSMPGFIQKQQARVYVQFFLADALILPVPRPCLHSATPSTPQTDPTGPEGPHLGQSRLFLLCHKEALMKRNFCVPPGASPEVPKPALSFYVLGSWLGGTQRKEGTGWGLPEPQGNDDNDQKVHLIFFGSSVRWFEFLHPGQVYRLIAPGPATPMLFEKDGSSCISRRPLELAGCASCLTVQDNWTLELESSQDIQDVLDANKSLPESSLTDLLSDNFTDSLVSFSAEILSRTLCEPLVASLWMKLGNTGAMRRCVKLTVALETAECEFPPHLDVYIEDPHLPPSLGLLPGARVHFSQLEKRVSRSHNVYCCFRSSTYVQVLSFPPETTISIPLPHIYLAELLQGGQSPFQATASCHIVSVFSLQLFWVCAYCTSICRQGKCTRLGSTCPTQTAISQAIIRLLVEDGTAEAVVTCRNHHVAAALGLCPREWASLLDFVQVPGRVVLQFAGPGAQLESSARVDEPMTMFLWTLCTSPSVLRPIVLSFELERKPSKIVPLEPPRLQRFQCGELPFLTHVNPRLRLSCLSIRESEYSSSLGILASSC
T1 chain 2: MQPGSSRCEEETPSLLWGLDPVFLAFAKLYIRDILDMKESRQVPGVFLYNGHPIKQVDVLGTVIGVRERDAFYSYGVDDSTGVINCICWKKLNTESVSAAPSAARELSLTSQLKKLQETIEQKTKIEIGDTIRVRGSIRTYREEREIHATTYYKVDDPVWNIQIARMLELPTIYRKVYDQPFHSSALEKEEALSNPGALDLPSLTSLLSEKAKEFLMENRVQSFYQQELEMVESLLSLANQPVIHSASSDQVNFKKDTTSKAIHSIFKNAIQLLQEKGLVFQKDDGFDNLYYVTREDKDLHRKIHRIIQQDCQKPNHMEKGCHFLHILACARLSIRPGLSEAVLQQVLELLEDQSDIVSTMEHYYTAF
T1 chain 3: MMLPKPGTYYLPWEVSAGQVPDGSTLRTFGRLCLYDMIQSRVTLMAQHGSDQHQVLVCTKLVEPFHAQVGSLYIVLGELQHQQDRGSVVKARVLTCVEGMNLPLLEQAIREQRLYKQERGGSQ
Assay: negative-stain EM
Conditions: remark: other sources report otherwise

stoichiometry N: 2
B1: CST (Ctc1/Stn1/Ten1), His6-MBP tag of Ctc1 cleaved off, Q2NKJ3 1-1217; Q9H668 1-368; Q86WV5 1-123 (complex)
chain 1: MAAGRAQVPSSEQAWLEDAQVFIQKTLCPAVKEPNVQLTPLVIDCVKTVWLSQGRNQGSTLPLSYSFVSVQDLKTHQRLPCCSHLSWSSSAYQAWAQEAGPNGNPLPREQLLLLGTLTDLSADLEQECRNGSLYVRDNTGVLSCELIDLDLSWLGHLFLFPRWSYLPPARWNSSGEGHLELWDAPVPVFPLTISPGPVTPIPVLYPESASCLLRLRNKLRGVQRNLAGSLVRLSALVKSKQKAYFILSLGRSHPAVTHVSIIVQVPAQLVWHRALRPGTAYVLTELRVSKIRGQRQHVWMTSQSSRLLLLKPECVQELELELEGPLLEADPKPLPMPSNSEDKKDPESLVRYSRLLSYSGAVTGVLNEPAGLYELDGQLGLCLAYQQFRGLRRVMRPGVCLQLQDVHLLQSVGGGTRRPVLAPCLRGAVLLQSFSRQKPGAHSSRQAYGASLYEQLVWERQLGLPLYLWATKALEELACKLCPHVLRHHQFLQHSSPGSPSLGLQLLAPTLDLLAPPGSPVRNAHNEILEEPHHCPLQKYTRLQTPSSFPTLATLKEEGQRKAWASFDPKALLPLPEASYLPSCQLNRRLAWSWLCLLPSAFCPAQVLLGVLVASSHKGCLQLRDQSGSLPCLLLAKHSQPLSDPRLIGCLVRAERFQLIVERDVRSSFPSWKELSMPGFIQKQQARVYVQFFLADALILPVPRPCLHSATPSTPQTDPTGPEGPHLGQSRLFLLCHKEALMKRNFCVPPGASPEVPKPALSFYVLGSWLGGTQRKEGTGWGLPEPQGNDDNDQKVHLIFFGSSVRWFEFLHPGQVYRLIAPGPATPMLFEKDGSSCISRRPLELAGCASCLTVQDNWTLELESSQDIQDVLDANKSLPESSLTDLLSDNFTDSLVSFSAEILSRTLCEPLVASLWMKLGNTGAMRRCVKLTVALETAECEFPPHLDVYIEDPHLPPSLGLLPGARVHFSQLEKRVSRSHNVYCCFRSSTYVQVLSFPPETTISIPLPHIYLAELLQGGQSPFQATASCHIVSVFSLQLFWVCAYCTSICRQGKCTRLGSTCPTQTAISQAIIRLLVEDGTAEAVVTCRNHHVAAALGLCPREWASLLDFVQVPGRVVLQFAGPGAQLESSARVDEPMTMFLWTLCTSPSVLRPIVLSFELERKPSKIVPLEPPRLQRFQCGELPFLTHVNPRLRLSCLSIRESEYSSSLGILASSC
chain 2: MQPGSSRCEEETPSLLWGLDPVFLAFAKLYIRDILDMKESRQVPGVFLYNGHPIKQVDVLGTVIGVRERDAFYSYGVDDSTGVINCICWKKLNTESVSAAPSAARELSLTSQLKKLQETIEQKTKIEIGDTIRVRGSIRTYREEREIHATTYYKVDDPVWNIQIARMLELPTIYRKVYDQPFHSSALEKEEALSNPGALDLPSLTSLLSEKAKEFLMENRVQSFYQQELEMVESLLSLANQPVIHSASSDQVNFKKDTTSKAIHSIFKNAIQLLQEKGLVFQKDDGFDNLYYVTREDKDLHRKIHRIIQQDCQKPNHMEKGCHFLHILACARLSIRPGLSEAVLQQVLELLEDQSDIVSTMEHYYTAF
chain 3: MMLPKPGTYYLPWEVSAGQVPDGSTLRTFGRLCLYDMIQSRVTLMAQHGSDQHQVLVCTKLVEPFHAQVGSLYIVLGELQHQQDRGSVVKARVLTCVEGMNLPLLEQAIREQRLYKQERGGSQ
